Source: patent US20240093246

System: cyanobacterial flavodoxin

Substance | flavodoxin photoreduction turnover rate | fold decrease of flavodoxin reduction against WT PSI | linear rate of flavodoxin photoreduction relative to JVD-1b^H6 PSI | linear rate of flavodoxin photoreduction relative to WT^H6 PSI
wild-type photosystem I purified from strain JVD-1B^H6 | 5.7±0.3 Flvd s^-1 (PSI)^-1 |  |  | 
PSI-MeHydA complex (chimeric photosystem I carrying PsaC-MeHydA, from strain ΨH3^H6) | 0.7±0.1 Flvd s^-1 (PSI)^-1 | lowers flavodoxin reduction by a factor of 6-8 | 12.3±2.4% relative to JVD-1b^H6 PSI | ˜15.9±2.4% that of WT^H6
wild-type photosystem I purified from strain WT^H6 (PBC4-2[pBSEP5.8]) | 4.4±0.6 Flvd s^-1 (PSI)^-1 |  |  | 
